Reference: publication PMC12137362, “OsAPSE modulates non-covalent interactions between arabinogalactan protein O-glycans and pectin in rice cell walls” (Frontiers in Plant Science, 2025)

System: O=[N+]([O-])c1ccc(O[C@H]2O[C@H](CO)[C@H](O)[C@H](O)[C@H]2O)cc1
Experiment: cells, lysate or membranes
Conditions: Tris-HCl pH 8, 25 °C, unpurified cell-free expression reaction, final substrate 0.5-50 mM

## GH27_OsAPSE (GH27 domain of OsAPSE) (Oryza sativa Japonica Group)
  Km: 670 µM
